Measurements published in PMC13053990.

Key:
[1] = biological target: EGFP-miPEP8 SLiMmt (mutated SLiM MOD_Plk1/MOD_Plk4) (Drosophila melanogaster); assay: affinity purification with mass spectrometry; GFP-Trap agarose beads O/N at 4 °C on lysates of S2 cells transfected with EGFP, EGFP-miPEP8 or EGFP-miPEP8 SLiMmt; lysis buffer 50 mM Tris pH 7.5, 50 mM NaCl, 5% glycerol, 0.1% Igepal; four washes; LC-MS/MS, MaxQuant
[2] = biological target: miPEP8 fused on its C-terminus to the N-terminal fragment of luciferase (N-Luc) (Drosophila melanogaster); assay: split reporter (BiFC, NanoBiT); split firefly luciferase in S2 cells: miPEP8 or Ey fused to N-Luc, candidates or Antp fused to C-Luc; 48 h after transfection, D-luciferin, luminescence normalised; negative control: the two fragments not fused to any protein

| fold decrease of the interaction against EGFP-miPEP8 (MS intensity) [1] | luminescence signal, times the negative control (times the negative control) [2] | Binder |
| --- | --- | --- |
| 2.8 fold |  | ref(2)P (refractory to sigma P), the orthologue of the human p62/Sequestosome 1 protein (natural protein) MPEKLLKITYQGAGPQKKINAYLRMPSQNYTILRREIELYLFQERQLPKCDVRTFWIDADKDEIEIVNQNDYEIFLAKCESNMHVQVAPLAPVEEPKATKQEGSSANAEAPSVDDPSNFTIHDAVECDGCGLAPLIGFRYKCVQCSNYDLCQKCELAHKHPEHLMLRMPTNNGPGMVDAWFTGPGLGRRSGRRSRGHCPFQETNQADPAGEPARDSRRERRQARRHAGVLTQFVEMMTNLPLNTTTATAPAEPQKPKAAEQTESPPQAEPTVTAEKAAESEAKPTEPKKVNTDQSVPRTEDPVTTPRSTQPTTPVINLDNISQIVPPEYMSAGIEILNNFSEMFSKIIDTTEGGDSGIFAPSTTPSAENKKPEEQGQSSGQSGASSANQSAVPSAAPSANQSNVPSANQSATPSISGSIPDAQLETEPLNPKPSETTTETEQERRRSDSLDPEWQLIDNAYSANNSNLINLDTTNPTAAPQEPVRDFGQLGELLRQHMNEEARVEQASANTQTAQVDTVSTSTSTTSVTTNSVGTSPAAPDDKRTVPVYHTDESINKSIHAMMAMGFSNEGAWLTQLLESVQGNISAALDVMNVSQNRN |
|  | 4.6 | PI3K92 E fused with the C-terminal fragment of the luciferase (natural protein) MNMMDNRALAYVAHQPKYETPPEEAEPPCMRFSVNLWKNEMLNWVDLICLLPNGFLLELRVNPANTIQVIKVEMVNQAKQMPLGYVIKEACEYQVYGISTFNIEPYTDETKRLSEVQPYFGILSLGERTDTTSFSSDYELTKMVNGMIGTTFDHNRTHGSPEIDDFRLYMTQTCDNIELERSAYTWQQRLLYEHPLRLANSTKMPELIRERHPTRTFLIVVKNENDQSTFTLSVNEQDTPFSLTESTLQKMNRSQMKMNDRTSDYILKVSGRDEYLLGDYPLIQFLYIQEMLSDSAVPNVVLQSVYRLESYINHHNEQAMVTKRPLPKKRTVHLHKSISSLWDMGNYFQLTLHSISNVNFDKTRALKVGVHVCLYHGDKKLCAQRSTDSPNGNFDTFLFNDLVMDFDIQMRNLPRMTRLCIVIFEVTKMSRSKKSSNNKDIALKDVPYNKNPLAWVNTTIFDHKDILRTGRHTLYTWTYADDIQSVEVFHPLGTIEPNPRKEECALVDLTFLSSGTGTVRYPSEEVVLQYAADREQVNRLQRQLAGPEKPIKELKELMANYTGLDKIYEMVDQDRNAIWERRNDILRELPEELSILLHCVYWKERDDVADMWYLLKQWPLISIERSLELLDYAYPDPAVRRFAIRCLHFLKDEDLLLYLLQLVQAIKHESYLESDLVVFLLERALRNQRIGHYFFWHLRSEMQTPSMQTRFGLLLEVYLKGCKHHVAPLRKQLHVLEKLKQGSLIAKKGSKEKVKTMLQDFLRDQRNSAVFQNIQNPLNPSFRCSGVTPDRCKVMDSKMRPLWVVFENADVNASDVHIIFKNGDDLRQDMLTLQMLRVMDQLWKRDGMDFRMNIYNCISMEKSLGMIEVVRHAETIANIQKEKGMFSATSPFKKGSLLSWLKEHNKPADKLNKAINEFTLSCAGYCVATYVLGVADRHSDNIMVKRNGQLFHIDFGHILGHFKEKLGVRRERVPFVLTHDFVYVINKGFNDRESKEFCHFQELCERAFLVLRKHGCLILSLFSMMISTGLPELSSEKDLDYLRETLVLDYTEEKAREHFRAKFSEALANSWKTSLNWASHNFSKNNKQ |
